Experimental data as given in PMC9859754, “Multivalent interactions facilitate motor-dependent protein accumulation at growing microtubule plus-ends” (Nature Cell Biology, 2022).

T1: Full-length S. pombe Mal3, unlabelled (S. pombe, UniProt Q10113 1-308)
T1 construct: Mal3 (EB homologue), Schizosaccharomyces pombe, full length; Scaffold (200 nM) in the scaffold-client assay; also the Mal3 of the cryo-ET samples; also called FL-Mal3; FLMal3; source: E. coli ER2566, purified (Talon resin, eluted with 3C protease, SEC); not shown: His8, N-terminal, cleaved
T1 sequence (looked up): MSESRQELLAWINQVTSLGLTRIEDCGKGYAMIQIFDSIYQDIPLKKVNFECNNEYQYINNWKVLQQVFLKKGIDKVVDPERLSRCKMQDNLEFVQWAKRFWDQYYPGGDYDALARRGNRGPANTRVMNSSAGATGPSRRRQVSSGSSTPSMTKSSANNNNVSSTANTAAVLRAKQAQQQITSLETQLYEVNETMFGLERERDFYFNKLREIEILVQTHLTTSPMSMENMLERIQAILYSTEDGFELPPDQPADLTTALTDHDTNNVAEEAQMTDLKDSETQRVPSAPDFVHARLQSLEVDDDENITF

T2: Tea2-Alexa647 (S. pombe, UniProt Q1MTQ1 1-628, Alexa Fluor 647 (NHS ester labelling, sites not stated))
T2 construct: Tea2 (kinesin-7 homologue), Schizosaccharomyces pombe, full length; also called Tea2-647; source: bacterially expressed, purified (Talon resin, eluted with 3C protease, SEC), labelled with Alexa Fluor 647 NHS ester; not shown: Z-tag, N-terminal, cleaved
T2 sequence (looked up): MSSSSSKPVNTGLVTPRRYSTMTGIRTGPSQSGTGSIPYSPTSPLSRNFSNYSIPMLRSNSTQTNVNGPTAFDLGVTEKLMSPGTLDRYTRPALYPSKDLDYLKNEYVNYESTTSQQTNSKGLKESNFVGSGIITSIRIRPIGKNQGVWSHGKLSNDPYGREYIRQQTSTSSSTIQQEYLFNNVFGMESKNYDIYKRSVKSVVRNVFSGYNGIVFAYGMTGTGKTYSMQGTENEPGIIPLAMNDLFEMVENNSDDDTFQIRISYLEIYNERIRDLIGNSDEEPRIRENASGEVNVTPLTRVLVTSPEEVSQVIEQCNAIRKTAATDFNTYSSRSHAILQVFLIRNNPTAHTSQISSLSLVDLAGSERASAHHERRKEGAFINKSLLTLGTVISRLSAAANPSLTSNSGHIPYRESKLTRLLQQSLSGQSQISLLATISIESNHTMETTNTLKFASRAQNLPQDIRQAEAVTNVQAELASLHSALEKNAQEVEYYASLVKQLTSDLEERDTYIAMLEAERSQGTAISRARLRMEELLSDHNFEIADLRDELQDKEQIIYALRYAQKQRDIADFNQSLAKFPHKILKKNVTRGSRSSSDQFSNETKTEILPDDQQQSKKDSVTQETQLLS


Legend:
Conditions in all cases: both partners purified
[1] = biological target: T1, Full-length S. pombe Mal3, unlabelled; assay: scaffold-client recruitment into condensates (spinning disc confocal microscopy); scaffold condensates of 200 nM FL Mal3, 215 nM Tip1 (each tagged with 2 nM FL Mal3:mCherry) or Tea2-Alexa647, with 2 nM Mal3:GFP construct as client; 1x MRB80, 50 mM KCl, 10% PEG6k, 2 mM ATP, 1 mM GTP, 2 mM dithiothreitol, 0.5 mM β-mercaptoethanol; imaged about 30 min after mixing
Tea2-Alexa647 [2] = biological target: T2, Tea2-Alexa647; assay: as above
Tea2-Alexa647 [3] = biological target: T2, Tea2-Alexa647; assay: TIRF microscopy of purified fluorescent proteins on microtubules; plus-end-tracking reconstitution without PEG: 200 nM Mal3 or Mal3 construct, 20 nM Tea2, 150 nM Tip1 together on dynamic microtubules grown from surface-bound GMPCPP seeds; MRB80, 50 mM KCl, 14.5 µM tubulin, 0.5 µM rhodamine tubulin, 1 mM GTP, 2 mM ATP, 0.1% methylcellulose

binding result [1]	binding result (Tea2-Alexa647 [2])	binding result (Tea2-Alexa647 [3])	Binder
binds	binds		Full-length Mal3:GFP (natural protein, S. pombe, UniProt Q10113 1-308, looked up, Mal3 (EB homologue), Schizosaccharomyces pombe, full length; source: E. coli ER2566, purified (Talon resin, eluted with 3C protease, SEC); not shown: His8, N-terminal, cleaved) MSESRQELLAWINQVTSLGLTRIEDCGKGYAMIQIFDSIYQDIPLKKVNFECNNEYQYINNWKVLQQVFLKKGIDKVVDPERLSRCKMQDNLEFVQWAKRFWDQYYPGGDYDALARRGNRGPANTRVMNSSAGATGPSRRRQVSSGSSTPSMTKSSANNNNVSSTANTAAVLRAKQAQQQITSLETQLYEVNETMFGLERERDFYFNKLREIEILVQTHLTTSPMSMENMLERIQAILYSTEDGFELPPDQPADLTTALTDHDTNNVAEEAQMTDLKDSETQRVPSAPDFVHARLQSLEVDDDENITF
		binds	Mal3-Alexa488 (natural protein, S. pombe, UniProt Q10113 1-308, looked up, Alexa Fluor 488 (TFP ester labelling, sites not stated), Mal3 (EB homologue), Schizosaccharomyces pombe, full length; source: E. coli ER2566, purified (Talon resin, eluted with 3C protease, SEC), labelled with Alexa Fluor 488 TFP ester; not shown: His8, N-terminal, cleaved) MSESRQELLAWINQVTSLGLTRIEDCGKGYAMIQIFDSIYQDIPLKKVNFECNNEYQYINNWKVLQQVFLKKGIDKVVDPERLSRCKMQDNLEFVQWAKRFWDQYYPGGDYDALARRGNRGPANTRVMNSSAGATGPSRRRQVSSGSSTPSMTKSSANNNNVSSTANTAAVLRAKQAQQQITSLETQLYEVNETMFGLERERDFYFNKLREIEILVQTHLTTSPMSMENMLERIQAILYSTEDGFELPPDQPADLTTALTDHDTNNVAEEAQMTDLKDSETQRVPSAPDFVHARLQSLEVDDDENITF
